Source: the supplement of paper PMC9233669
Variants at the floor of the assay were thinned out.

Legend:
biotinyl-Val-oxazolone = test: self-aminoacylation, catalytic enhancement (BVO) (fold over background); higher = more active; k-Seq, kA / k0A0; sequences stand for … in GGGAAUGGAUCCACAUCUACGAAUUC…UUCACUGCAGACUUGACGAAGCUG
Procedure, shortened: (§1)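 Mutagenized RNA pools (0.43 μM; 21-nt variable region) were treated with 2–1250 μM of each biotinyl-aminoacyl-oxazolone. Conditions were 50 μL HEPES/NaCl/KCl/MgCl2/CaCl2 buffer, 5% acetonitrile, pH 6.9–7.0, room temperature, 90 minutes. Catalytic enhancement, the median kA relative to the uncatalyzed rate, was derived from streptavidin capture, qPCR and Illumina sequencing.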

biotinyl-Phe-oxazolone = test: self-aminoacylation, catalytic enhancement (BFO) (fold over background); higher = more active; k-Seq, kA / k0A0; sequences stand for … in GGGAAUGGAUCCACAUCUACGAAUUC…UUCACUGCAGACUUGACGAAGCUG
Procedure, shortened: as §1

biotinyl-Met-oxazolone = test: self-aminoacylation, catalytic enhancement (BMO) (fold over background); higher = more active; k-Seq, kA / k0A0; sequences stand for … in GGGAAUGGAUCCACAUCUACGAAUUC…UUCACUGCAGACUUGACGAAGCUG
Procedure, shortened: as §1

biotinyl-Ile-oxazolone = test: self-aminoacylation, catalytic enhancement (BIO) (fold over background); higher = more active; k-Seq, kA / k0A0; sequences stand for … in GGGAAUGGAUCCACAUCUACGAAUUC…UUCACUGCAGACUUGACGAAGCUG
Procedure, shortened: as §1

biotinyl-Leu-oxazolone = test: self-aminoacylation, catalytic enhancement (BLO) (fold over background); higher = more active; k-Seq, kA / k0A0; sequences stand for … in GGGAAUGGAUCCACAUCUACGAAUUC…UUCACUGCAGACUUGACGAAGCUG
Procedure, shortened: as §1

biotinyl-Trp-oxazolone = test: self-aminoacylation, catalytic enhancement (BWO) (fold over background); higher = more active; k-Seq, kA / k0A0; sequences stand for … in GGGAAUGGAUCCACAUCUACGAAUUC…UUCACUGCAGACUUGACGAAGCUG
Procedure, shortened: as §1

Sequence	self-aminoacylation (biotinyl-Val-oxazolone)	self-aminoacylation (biotinyl-Phe-oxazolone)	self-aminoacylation (biotinyl-Met-oxazolone)	self-aminoacylation (biotinyl-Ile-oxazolone)	self-aminoacylation (biotinyl-Leu-oxazolone)	self-aminoacylation (biotinyl-Trp-oxazolone)
AUUCACCUAUGUCAGCGGGUG [Fam2.2 aminoacylation ribozyme variant]	2.33	28.7	3.6	2.87	4.78	3.73
AUUCACCUAUGUCAUCGAGUG [Fam2.2 aminoacylation ribozyme variant]	2.98	17.2	4.64	3.35	5.42	4.95
AUUCACCUAUGUCAUCGGCUG [Fam2.2 aminoacylation ribozyme variant]	1.3	0.644	1.21	1.38	1.26	0.681
AUUCACCUAUGUCAUCGGGUU [Fam2.2 aminoacylation ribozyme variant]	1.61	0.724	1.48	1.35	1.86	1.75
AUUCACCUAUGUCCUCGGGUG [Fam2.2 aminoacylation ribozyme variant]	2.04	21.6	3.04	2.17	4.03	3.42
AUUCACCUAUGUCGUCGGGUG [Fam2.2 aminoacylation ribozyme variant]	1.15	6.21	1.28	1.19	1.44	1.3
AUUCACCUAUGUGAUCGGGUG [Fam2.2 aminoacylation ribozyme variant]	1.99	15.9	2.14	1.69	2.74	2.25
AUUCACCUCCGUCAUCGGGUG [Fam2.2 aminoacylation ribozyme variant]	4.91	70.3	8.59	5.62	10.8	8.32
AUUCACCUCGGUCAACGGGUG [Fam2.2 aminoacylation ribozyme variant]	2.82	27.8	3.98	2.44	5.39	3.36
AUUCACCUCGGUCAUAGGGUG [Fam2.2 aminoacylation ribozyme variant]	1.19	5.66	1.41	1.11	1.76	1.43
AUUCACCUCGGUCAUCCGGUG [Fam2.2 aminoacylation ribozyme variant]	7.28	78.8	12.2	6.84	14	11.1
AUUCACCUCGGUCAUCGGGUA [Fam2.2 aminoacylation ribozyme variant]	3.25	17	3.24	2.96	2.87	3.95
AUUCACCUGAGUCAUCGGGUG [Fam2.2 aminoacylation ribozyme variant]	5.03	35.9	13	5.26	15	9.59
AUUCACCUGCGUCAUCGGGUG [Fam2.2 aminoacylation ribozyme variant]	5.41	49.4	7.79	5.17	10.6	7.09
AUUCACCUGGGUCAUCAGGUG [Fam2.2 aminoacylation ribozyme variant]	1.92	6.12	1.48	1.52	1.67	1.36
AUUCACCUGGGUCAUCGCGUG [Fam2.2 aminoacylation ribozyme variant]	9.89	110	14.3	8.24	17.1	14.3
AUUCACCUGGGUCAUGGGGUG [Fam2.2 aminoacylation ribozyme variant]	4.9	51.6	6.65	4.05	9.15	6.16
AUUCACCUGGGUCCUCGGGUG [Fam2.2 aminoacylation ribozyme variant]	4.67	39	6.49	4.33	7.74	6.22
AUUCACCUGGGUCGUCGGGUG [Fam2.2 aminoacylation ribozyme variant]	2.48	6.66	2.46	1.93	2.3	2.11
AUUCACCUGGUUCAUCGGGUG [Fam2.2 aminoacylation ribozyme variant]	3.1	15.2	3.08	2.42	3.19	3.62
AUUCACCUUGCUCAUCGGGUG [Fam2.2 aminoacylation ribozyme variant]	2	10.7	1.94	1.84	2.63	2.01
AUUCACCUUGGUCAACGGGUG [Fam2.2 aminoacylation ribozyme variant]	2.2	20.3	3.19	2.22	4.24	3.03
AUUCACCUUGGUCAGCGGGUG [Fam2.2 aminoacylation ribozyme variant]	3.16	25.6	3.99	2.71	5.32	3.71
AUUCACCUUGGUCAUCGGGAG [Fam2.2 aminoacylation ribozyme variant]	1.05	0.73	1.05	1.07	1.09	1.27
AUUCACCUUGGUCAUCGGGUC [Fam2.2 aminoacylation ribozyme variant]	1.58	4.87	1.32	1.2	1.15	1.28
AUUCACCUUGGUCGUCGGGUG [Fam2.2 aminoacylation ribozyme variant]	1.81	11.3	1.86	1.9	2.18	2.01
